In assay [1] the target is CD44抗原 (THP-1细胞系表面) (UniProt P16070). Kind of assay: flow cytometry on THP-1 cells, HI44a 20 μl (1 mg/ml) then competitor anti-CD44 ScFv 100 μl (1 mg/ml), goat anti-mouse IgG-FITC.
Assay [2] shares this target. Kind of assay: flow cytometry on CD44-positive THP-1 cells, HI44a 20 μl (1 mg/ml) then PBS (positive control), goat anti-mouse IgG-FITC. On the technique in general: A flow cytometer gives signals particle by particle.

The values below come from patent CN1552735A.

B1: 抗CD44单克隆抗体HI44a (antibody, IgG2a, V domains shown)
VH: QVKLQESGPGILQPSQTLSLTCSISGFSLNTSGMGVSWIRQPSGKGLEWLAHIYWDDGKRYNPSLKSRLTISKDTSRNQVFLKITSVDTADTGTYYCARRAYGINFAFDYWGQGTTVTVSS
VL: DIQLTQTAAILSVSPGERVSFSCRTSQSIGTSIHWYHQRTNGSPRLLIKSASESMSGIPSRFSGSGSGTDFTLSINSVESEDIAYYYCQQSNSWPLTFGAGTKLEIKR
B1 showed a 结合阳性率 (经抗CD44 ScFv竞争后) with CD44抗原 (THP-1细胞系表面) [1] of 27.1%. The molecule further gave a 结合阳性率 in the assay with CD44抗原 (THP-1细胞系表面) [2] of 51%.
